{
  "source": "paper doi:10.1101/2021.09.12.459962",
  "about": "(bioRxiv, 2021)",
  "proteins": {"B1": {"name": "UDS1-His6 (natural protein, Aspergillus nidulans, UniProt Q5B1I5 1-941, looked up)", "chain": "MNGFDFRSSQSSYGDPRHFSDASYGVPQPPPTKVLLDGYRDALGPANAEKSLYNSANPTSHPRRSIPPSANDPVAMYLLTETAMGDSVNYEILSVEEVEGLKKELRVLSNRMNAAKRKLALELKLRDAAMSLSRLHHKEEHDVDGSGRNEPNTDKTNEELVHINRKCEELSMDIWYSERKVQEIQKRLLEHTAGVLQLTHKGLKKNSKNGMPHTPESLSSSNTVDDFDDRSLYKASDPLDGPETYETRAPPPDNLAHDNSMQETERKLESMSSRLRDMLLQLDPDSEFSQIPQPSTSGDSFEPSAMIDAHLRYIENGISALGSLPKADMASQSLDPVSEQQLVEMRTQLLSIMENPGLPRAQTLPTAPDPTDSDLAKHLTFLSVGINGLESRVEKLLEQKSILTTQIQQQRELNSKSDAERDAKIADLIEQLAHLRKELELAEREGQQSKEDHDLTLKELEDVRRELLESRETHSSRDLGNSKNEAQQHAEAEIARLQSVIQEIQQEKDEHCEAHRRAEAEIDRLQAVIHQIQQEKDEHREAHERAEAETTRLQTIVEEVQQEKDEQHEAHGRAVAEVTRLQDIIQKIEQEKIERHEADERAEAEIVRLRDTIREIQQEKEEHHEARVRLEGEVARLQGVIGQLQESAESRESAEQQVAQLEETIHQIRHDADIRIKEATDSRAQADAKIAQLEGAMNEVRESLESQLKEATEARNNAEENSTRLQKELTELERDVVRAQTELTMVKAELDGAYGTRAQRAAEAAADPALFHELDELKARNFEMAEELAALKAGKPGSGDVHNRVETLERELRETVDDYEAMTKASIEFEKERERFESMIDSLRDRCEQLETQLNEERISWMGANNSASSMGRDGPYETTSTMVLKNEFKKMMRDTRAENMKILKAEQEERRKLEAILRNLKREQANLSGKSNISRTVTAS", "notes": "UDS1, product of AN5595 of Aspergillus nidulans, 941 residues; UDS1 cDNA cloned as NheI/NotI in pET21b; Mr 106,857 Da; Dimer by sedimentation equilibrium; also called purified UDS1; bacterially expressed UDS1; source: E. coli BLB21 pRIL, purified (Ni-Sepharose, Superdex gel filtration)"}},
  "target": "the molecule itself",
  "experiment": "AUC; sedimentation equilibrium of UDS1-His at 4 µM, 6000 to 9000 rpm, single-species model; monomers to dimer",
  "data": [
    {"protein": "B1", "values": [
      {"measurement": "stoichiometry N", "value": 2}
    ]}
  ]
}
